Literature values, collected in publication PMC5871566.
Read-outs that look alike come from different tables or passages of the source.

Tests used:
C4b (Homo sapiens) [1] = biological target: C4b (Homo sapiens) (UniProt P0C0L4)
C4b (Homo sapiens) [2] = biological target: C4b (Homo sapiens) (UniProt P0C0L4); remark: listed apart in the source

UniProt P0C0L4, sequence (P0C0L4 20-1744, chain 1 of 2): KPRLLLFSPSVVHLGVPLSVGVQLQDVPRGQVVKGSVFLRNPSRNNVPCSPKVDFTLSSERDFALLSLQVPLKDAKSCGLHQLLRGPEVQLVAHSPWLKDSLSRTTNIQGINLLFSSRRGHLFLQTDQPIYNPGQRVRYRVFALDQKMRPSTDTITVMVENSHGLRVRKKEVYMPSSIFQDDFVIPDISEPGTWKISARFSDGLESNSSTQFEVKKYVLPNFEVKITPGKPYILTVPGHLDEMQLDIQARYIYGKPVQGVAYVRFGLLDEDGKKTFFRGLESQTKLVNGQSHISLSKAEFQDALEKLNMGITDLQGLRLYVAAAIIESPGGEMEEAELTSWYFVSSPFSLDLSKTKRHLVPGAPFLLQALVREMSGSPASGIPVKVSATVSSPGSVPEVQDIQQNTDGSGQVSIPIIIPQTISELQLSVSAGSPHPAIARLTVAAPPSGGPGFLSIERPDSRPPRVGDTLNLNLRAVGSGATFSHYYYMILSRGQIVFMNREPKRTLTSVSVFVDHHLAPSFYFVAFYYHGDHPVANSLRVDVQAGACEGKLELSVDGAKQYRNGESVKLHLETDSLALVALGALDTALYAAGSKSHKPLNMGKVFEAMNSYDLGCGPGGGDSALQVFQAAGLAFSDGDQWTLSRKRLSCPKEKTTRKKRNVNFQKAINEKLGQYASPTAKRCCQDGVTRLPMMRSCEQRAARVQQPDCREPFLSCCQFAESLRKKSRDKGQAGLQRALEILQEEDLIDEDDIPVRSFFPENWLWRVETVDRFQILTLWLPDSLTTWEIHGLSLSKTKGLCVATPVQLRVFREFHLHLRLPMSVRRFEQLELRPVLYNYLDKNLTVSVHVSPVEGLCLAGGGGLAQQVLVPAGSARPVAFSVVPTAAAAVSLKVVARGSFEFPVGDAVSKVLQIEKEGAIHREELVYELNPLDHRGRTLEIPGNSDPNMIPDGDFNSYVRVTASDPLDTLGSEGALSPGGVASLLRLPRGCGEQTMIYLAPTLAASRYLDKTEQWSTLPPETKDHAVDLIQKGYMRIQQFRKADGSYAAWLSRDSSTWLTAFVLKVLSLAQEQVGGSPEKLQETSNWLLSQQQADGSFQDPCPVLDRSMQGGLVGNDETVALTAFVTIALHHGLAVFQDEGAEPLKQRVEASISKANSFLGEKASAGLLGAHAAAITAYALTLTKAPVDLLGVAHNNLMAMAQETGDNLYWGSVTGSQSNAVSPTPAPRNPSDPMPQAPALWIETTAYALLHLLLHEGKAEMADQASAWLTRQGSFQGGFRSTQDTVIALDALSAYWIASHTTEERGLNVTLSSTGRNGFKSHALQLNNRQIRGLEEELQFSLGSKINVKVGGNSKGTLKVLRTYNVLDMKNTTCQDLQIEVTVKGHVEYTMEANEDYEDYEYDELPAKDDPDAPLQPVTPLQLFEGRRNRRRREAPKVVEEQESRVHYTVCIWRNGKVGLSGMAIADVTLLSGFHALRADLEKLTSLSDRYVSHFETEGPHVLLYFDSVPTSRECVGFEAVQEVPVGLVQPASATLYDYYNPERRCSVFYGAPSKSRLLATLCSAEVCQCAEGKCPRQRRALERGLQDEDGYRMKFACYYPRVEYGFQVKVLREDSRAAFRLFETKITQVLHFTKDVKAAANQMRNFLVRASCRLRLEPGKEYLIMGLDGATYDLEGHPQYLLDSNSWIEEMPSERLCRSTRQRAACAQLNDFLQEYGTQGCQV
UniProt P0C0L4, sequence (P0C0L5 20-1744, chain 2 of 2, further chain): as the sequence (P0C0L4 20-1744, chain 1 of 2) above, with A888T, D1054G, P1101L, C1102S, L1105I, D1106H, N1157S, V1188A, L1191R, S1267A counted along it

For Eap34 domains 3-4 (from UniProt Q99QS1), the Kd (C4b (Homo sapiens) [1]) is given as 0.525 µM.
For “Eap individual domains (domain 3 or 4) domain 3 or domain 4 (from UniProt Q2FWW1)”, the Kd (C4b (Homo sapiens) [2]) is listed as 40 µM.
